Measurements as given in a protein production outcome set (Wang et al. 2014).

assay: label from the status in PepcDB records

Row | Sequence | protein production
1 | MTVGASQQTSTIALHNDTGMLMSNLNIFKQPNAFYLIFSIEFWERFGFYGMQAILTVYMVKIMGMDESASFVLFGAFSALVYGFVAIGGWIGDKVIGTKRAITLGAIVMMVGYVLLGLSTADHPLVGPTLIYIAMGFITVGNGLFKANPSSLLAKIYPENDPRLDGAFTMYYMAINLGSFFSMIITPLVAIKMGYGMAFGVSAVGLAITVVNFLFCLRMLKGTGSPADLMPVNKMYLVLVAVGSIIASLVCSYLLQNLTLAHGILVVAGLFILGCYFKEAFSMSGIERAKMLVAFILMLQGVVFFVLYFQMPTSLNFFAINNVEHHIFGFDVAPEQFQALNPFWIMIASPILAATYGKLGDKLAMPFKFAFGMALCALSFLVLSWGTLFANEQGIISSNWLIASYAFQSIGELLVSGLGLAMVAQLVPQRMMGFAMGMWFLTSASAAVIAGWVASLTSTPANVSGATESLHIYGEVFAQIGYVTAGIAIVTFMIAPKLTRICRGESEPLELVTQ | failed
2 | MTVIERFKSNLKGKQNLINFGFILIGLFGCYLLIAWASYSPLDNAWSTASSVTHDTVLNKTGKLGAWLIDLLYAFLGNVAFVVPFVLFSFAIYALIFRIAEQWKWRNLLLQIGSFILLLIGLSGIASVLLPNSAYYLAGGFVGGMLQSLLNGIIGQVGLLLLSTVLMSIGFYFCSGQLLFSLGIQFYQWLFIKKPQSNTILEAANPHLNAQNNETTKSIVANPSENAHVDQLVTHENATEQLTDVSAFTRPTIHGLKSSSTLNTDKTKYNQVNAQPLTDPMMFKIEKKVILPKINMQHPENELTNLSMEQTNSIDNLEIRLPKVHLNTAVTNPEIKTVEHHAQNRPLEMPTQIQPVFDQPITPTISLNVEDQPLDIESNEAQLAEEFAAAEQMRLANMEQRAKAEGLEETFNQIITSPTLTVSINESSEQPTEKDLNPTHHDNGANYPKGYGKTLLHPLLQRNNVVEKPTTPLPTLELLAKNPVQTQQITEQEIFDTSHRLENALANYNVKATVEDVLVGPVVTRYEIKPAAGIKANKVTALANDLARELMFKAIRITEVVPGKPYMGIETPNTHRQTVWLRDVLDSEAFRHTQATLPMALGKDISGQPIVVDMAKMPHLLVAGQTGGGKSVGINTMILSLLFKLTPEQVRFIMIDPKVVELSVYNDIPHLLTPVVTDMKKAANALRWAVGEMERRYLLISHLQVRNIEGYNDKIDQASAMNFPIPDPTWRPADSIGQLPPPLTKLSYIVLIVDEFADLIMSAGKEVEEYIMRIAQKARAVGIHLILATQRPSTDVITGVIKANIPSRIAFTVASQIDSRTILDAGGAEALLGRGDMLYSASGSPEIMRIHGAFMSDEEVQRIADNWRARGKPQYLDSVVASHEDENDSRTNTITELDPLFDEIVAYVIESGVTSISGIQRRFSLGFNRAGRIIDQMEAQAIISEPGKGGKREVLAR | failed
3 | MTVITLMLVLFEVVFSVSIYRYYYNGIVQYIESHAKTSTRFFSEYNSLYFIRLQEYSGDIISSFQLEGTELQLIDRHGSVIQSSSGEKVEGKVNIPQSLLEGEMYNQVTTKGNKKQLEVLSPLIHQGQTIGVLKYTTVLTNVNKKIIEIITFTISVGIVISGVVFLISRRLANSFVEPIESIIQASSQIAEGTLKQKIKEDYPGELGDLAHSLNYMAYKIDKAEQMKNEFIASISHEIRTPLTGIKGWSETLKTVDHLTEEEIKQGMGIISGETDRLIHLVEELLDFSRLQSNHFNLYKQKVQLYDILEETIWQLTPKSEEKEIQFITTIDRMELMGDRNRLKQVFLNIVQNAIKYSHKKSTIHIEATKIEGQAVIKVRDEGIGIAKEHLPYIEQSFYQINNHAAGAGIGLAIVKKMVELHSGVLSVTSKEGIGTTILIKLPL | failed
4 | MTVLKGDNLEILKTIESSSIDLIYMDPPFFTQKTQKLSNNKNIMYSFEDTWTSIEDYKEFLSVRLEECKRVLKNSGSIFVHCDKIANHHIRLILDNIFGVDMFQSEIIWNYKRWSNSKKGLLNNHQNIYFYSKSKDFKFNTIFTEYSSTTNIDQILVERKRDGNSKTIYKVDNNGNYILAKEKNGVPLSDVWNIPFLNPKAKERVGYPTQKPILLLEQIIKIATDKNDIVLDPFCGSGTTLVASKILNRNYMGIDLSEEAINITQQRLENVIKTSSNLLNKGIE | failed
5 | MTVLSPSLPHAAGIDAALVENPWLGLRRSGRYFQNAETEALFARALGYARAGVCVHLAGPAGLGKTTLALRIAQALGRPVAFMTGNEWLGSRDFIGGEIGQTVTSVVDRYIQSVRRTEQSARIDWKESILGQAMRCGQTFIYDEFTRASPEANAALLSVLEEGVLVSTDGASRHQYIEAHPDFRVLLTSNPHEYQGVKAAPDALIDRMVTLRLEEPSAPTLAGIVALRSGLDPATARRIVDLILSVQRSGEMQAPPSMRTAILVARLAAPLRLAGRLSDAALAEIAADVLRGRGLEADAAAFEAKLAAPTPGETARLEHHHHHH | failed
6 | MTVNVYDLANELERGIRALPEYQALVQAKAKIDEDEEAKKLWTEFTEFQMKIQGLIQTGQAPTPEVQTEMQSFNQKIEANPLLKEYATAQQALGVYVNDIERIIFSPLQDIAK | not failed
7 | MTVPEEAQTLIGKHYRAPDHFLVGREKIREFAVAVKDDHPTHYSEPDAAAAGYPALVAPLTFLAIAGRRVQLEIFTKFNIPINIARVFHRDQKFRFHRPILANDKLYFDTYLDSVIESHGTVLAEIRSEVTDAEGKPVVTSVVTMLGLEHHHHHH | failed
8 | MTVQRREKGSSITRVLEIIEAISRAERPMSPAELAFLLDIPKPSIHRLLQQLEADNYVQINMRGLLVPGDRMHSIALGVLHSSRFKALRQAILKKLAETIGETCGIAIPDGIEMIYYDRVQTNWPLRVNLPVGSHTPVACTASGKLYLSSLPKERRHRIIGKLSLEKLARNTLIESESLEKELINIQANELGTDNEEFIDGMVACSVPIKDQDGKLFACLFTHAPVIRKSLDELLAFEPALRHAAIELGDLLKEQ | failed
9 | MTVSGPGTPEPRPATPGASSVEQLRKEGNELFKCGDYGGALAAYTQALGLDATPQDQAVLHRNRAACHLKLEDYDKAETEASKAIEKDGGDVKALYRRSQALEKLGRLDQAVLDLQRCVSLEPKNKVFQEALRNIGGQIQEKVRYMSSTDAKVEQMFQILLDPEEKGTEKKQKASQNLVVLAREDAGAEKIFRSNGVQLLQRLLDMGETDLMLAALRTLVGICSEHQSRTVATLSILGTRRVVSILGVESQAVSLAACHLLQVMFDALKEGVKKGFRGKEGAIIVDPARELKVLISNLLDLLTEVGVSGQGRDNALTLLIKAVPRKSLKDPNNSLTLWVIDQGLKKILEVGGSLQDPPGELAVTANSRMSASILLSKLFDDLKCDAERENFHRLCENYIKSWFEGQGLAGKLRAIQTVSCLLQGPCDAGNRALELSGVMESVIALCASEQEEEQLVAVEALIHAAGKAKRASFITANGVSLLKDLYKCSEKDSIRIRALVGLCKLGSAGGTDFSMKQFAEGSTLKLAKQCRKWLCNDQIDAGTRRWAVEGLAYLTFDADVKEEFVEDAAALKALFQLSRLEERSVLFAVASALVNCTNSYDYEEPDPKMVELAKYAKQHVPEQHPKDKPSFVRARVKKLLAAGVVSAMVCMVKTESPVLTSSCRELLSRVFLALVEEVEDRGTVVAQGGGRALIPLALEGTDVGQTKAAQALAKLTITSNPEMTFPGERIYEVVRPLVSLLHLNCSGLQNFEALMALTNLAGISERLRQKILKEKAVPMIEGYMFEEHEMIRRAATECMCNLAMSKEVQDLFEAQGNDRLKLLVLYSGEDDELLQRAAAGGLAMLTSMRPTLCSRIPQVTTHWLEILQALLLSSNQELQHRGAVVVLNMVEASREIASTLMESEMMEILSVLAKGDHSPVTRAAAACLDKAVEYGLIQPNQDGE | failed
10 | MTYFFETYGCQMNQAESSSMEQILLEKGWTNSSDAEHCDLLIINTCSVRITAENRVLGRLGHFSGLKKKRKFFVLLIGCMAERLYTEIQKEFPLIDYVVGMFERNLLPQIFDEIKARLKNDNYMAEFTHDNIEEKPVSGYYFAPLSHSPKSFQSYVPIMNGCNNFCTYCIVPYVRGREVSRPVNEILQEITELSSRGVREITLLGQNVNSYKGEDGEGRLIDFPKLLTLIAREADKTDMIRWIRFMSSHPKDMSDALIDTIAAEKRLCKLVHLPVQHGSDTILKRMNRVYTIEHYKNRIKRLKETIPDIALSTDILMGFPGETEDDVKATLDLMQEIEFDSAFMYHYNPREGTKAFNYPDRIPEEVKIERLGRVIDLQLKITAKKMKAKLGKKVDILVESHSRNERSELFGHTEQGEMTVIQGNPPESLIGNFAHAELKELKGKTFRANLN | failed
11 | MTYFLYGNNFSSSILDTISYIIDWIIINMEPITLTLCLLVFAIVMFVWEKVPLAVTSMIVCVALVITGVLNIKQAFAGFIDTNVILFVAMFIVGGALFETGMANKVGGVITRFAKTEKQLIFTIMVVVGLMSGVLSNTGTAAVLIPVVIGVAAKSGFSRSRLLMPLVFAAALGGNLSLIGAPGNLIAQSALQNIGGGFGFFEYAKIGLPMLICGILYFLTIGYRFLPNNATGGEVGSVGEQRDYSHVPQWKQRLSLVVLIATILGMIFEKKIGVSLAVTGCIGALVLVVSGVLTEKQAYKAIDSQTIFIFGGTLALAKALEMTGAGKLVADYVIGMLGQNSSPFMLLIAVFALSVVMTNFMSNTATTALLVPVSLSIAAGMGADPRAVLMATVIGGSCAYATPIGMPANMMVLSAGGYKFVDYAKAGIPLIIVSTIVSLILLPILFPFHP | failed
12 | MTYVLYGIKACDTMKKARTWLDEHKVAYDFHDYKAVGIDREHLRRWCAEHGWQTVLNRAGTTFRKLDEAQKADLDEAKAIELMLAQPSMIKRPVLELGGRTLVGFKPDAYAAALA | not failed
13 | MVAEITAPKSMGKVLGYNFSKVTAGNASVILTSSMSVDANGETNFERALTDMDMRIPSGIRTKKTVFHCSLNPHPDDRLTTEQLQDIAREYMEKMGYGKQPYIVFKHNDIAREHIHIVSLRVDSYGKKLPYKFEARRSKRITDELERKYGLIPSGNRRSRHETHAENVLKTADVKQGDVRRQIAAVVRAVLKRYAFRSLGEMNLLLARYHIVAEEVRKEYKGKRYDGLVYAITDDAGEKRMIPLHAGKIGRGTGYAAVVRHFEKSKALIKEKAPMLRNAIIEVMQSSPDKERFSEEMKKRGIDVHIRQNEQGRIYGITFISDEAGIAANGSRLGKGYSAHVFNDYFLGG | not failed
14 | MVAEKERVLMDLQDVFEYAFDEIFVTDDKGIVVRVNSTCERHYQIAAKELVGKHVKELQKDGIFYPSATLEVIEKKRPIELVQTTKSGEYLHVRTRPVFDDEGNLRRVISYSRDLTELYQLRQKVEEMDNQLKTYKKELRETYEHEGLIFKSIAMQKIIETIKKVSVVDSTVLVLGETGVGKSRLVRHLHEMSNRKNESFYEINCAALPTNLIESELFGYSGGSFTGANREGKKGLLESAHKGTLFLDEIGEMPLEIQAKLLQVLQEKTFRPIGGRELKKVDVRIVAATNRDLSMMVKQGTFRKDLYYRLNVIPILIPPLRERTEDILPLIYHYLQHFNEKYGRNVKLAPSTLQMFVGYPWEGNNREIENVIERIVITADDIVTIEDLPIAMQESTVEQSGQSLYKMLEEVERNIILKAYKTYGSSYKVAEFLKISQSAATRKIKKLIEEEENIG | failed
15 | MVALPDWMALAPALSLALASLVLLLADSIDPDSTNTGLLAGISVLGSLLSFGFAGWFITAGTGMADNTGVALFNSQLVVDQMALFFMAIVGSVTTLVVLASYDYITEHSYQAEFFALVLLSATGMSLLSAANSLATAFVALELVSLPSYALVAFLKENKGSVEAGLKYFLIGAVSSAVLAYGISLVYAATGVLRFDGVATAISSGTIQTISEGSIQAQSGDPAVPMAILGVGILMIIGGVAFKTASVPFHFWAPEAYEGAPAPISAFLSSASKAAGFVLAFRAFAVAFPIGDLLAAGGAINWVMAFQILAIATMFIGNFAAATQETVKRMLAYSSVGHAGYVLIGLAAVSGSGEGLSLSLSAGMSHLLVYGFMNTGAFLFIALAEYWGVGRRFEDYNGLGKEAPVACAAMTVFLFSLAGLPIGGGFFSKFYLFSATLNVGAWSLAAALIINSALSLFYYSRVVKAMWIEEPTGSRTIESYPMGLYTAVVGAAIVTVLLVPGFNRVSEIAFQAAQLL | failed
